Measured values reported in PMC11439917 (Nature Communications, 2024).

Biological target: human full-length LRRK2 (leucine-rich repeat kinase 2), purified (human, UniProt Q5S007 1-2527)
Assay: cryo-EM structure

Sequence of human full-length LRRK2 (leucine-rich repeat kinase 2), purified (Q5S007 whole entry): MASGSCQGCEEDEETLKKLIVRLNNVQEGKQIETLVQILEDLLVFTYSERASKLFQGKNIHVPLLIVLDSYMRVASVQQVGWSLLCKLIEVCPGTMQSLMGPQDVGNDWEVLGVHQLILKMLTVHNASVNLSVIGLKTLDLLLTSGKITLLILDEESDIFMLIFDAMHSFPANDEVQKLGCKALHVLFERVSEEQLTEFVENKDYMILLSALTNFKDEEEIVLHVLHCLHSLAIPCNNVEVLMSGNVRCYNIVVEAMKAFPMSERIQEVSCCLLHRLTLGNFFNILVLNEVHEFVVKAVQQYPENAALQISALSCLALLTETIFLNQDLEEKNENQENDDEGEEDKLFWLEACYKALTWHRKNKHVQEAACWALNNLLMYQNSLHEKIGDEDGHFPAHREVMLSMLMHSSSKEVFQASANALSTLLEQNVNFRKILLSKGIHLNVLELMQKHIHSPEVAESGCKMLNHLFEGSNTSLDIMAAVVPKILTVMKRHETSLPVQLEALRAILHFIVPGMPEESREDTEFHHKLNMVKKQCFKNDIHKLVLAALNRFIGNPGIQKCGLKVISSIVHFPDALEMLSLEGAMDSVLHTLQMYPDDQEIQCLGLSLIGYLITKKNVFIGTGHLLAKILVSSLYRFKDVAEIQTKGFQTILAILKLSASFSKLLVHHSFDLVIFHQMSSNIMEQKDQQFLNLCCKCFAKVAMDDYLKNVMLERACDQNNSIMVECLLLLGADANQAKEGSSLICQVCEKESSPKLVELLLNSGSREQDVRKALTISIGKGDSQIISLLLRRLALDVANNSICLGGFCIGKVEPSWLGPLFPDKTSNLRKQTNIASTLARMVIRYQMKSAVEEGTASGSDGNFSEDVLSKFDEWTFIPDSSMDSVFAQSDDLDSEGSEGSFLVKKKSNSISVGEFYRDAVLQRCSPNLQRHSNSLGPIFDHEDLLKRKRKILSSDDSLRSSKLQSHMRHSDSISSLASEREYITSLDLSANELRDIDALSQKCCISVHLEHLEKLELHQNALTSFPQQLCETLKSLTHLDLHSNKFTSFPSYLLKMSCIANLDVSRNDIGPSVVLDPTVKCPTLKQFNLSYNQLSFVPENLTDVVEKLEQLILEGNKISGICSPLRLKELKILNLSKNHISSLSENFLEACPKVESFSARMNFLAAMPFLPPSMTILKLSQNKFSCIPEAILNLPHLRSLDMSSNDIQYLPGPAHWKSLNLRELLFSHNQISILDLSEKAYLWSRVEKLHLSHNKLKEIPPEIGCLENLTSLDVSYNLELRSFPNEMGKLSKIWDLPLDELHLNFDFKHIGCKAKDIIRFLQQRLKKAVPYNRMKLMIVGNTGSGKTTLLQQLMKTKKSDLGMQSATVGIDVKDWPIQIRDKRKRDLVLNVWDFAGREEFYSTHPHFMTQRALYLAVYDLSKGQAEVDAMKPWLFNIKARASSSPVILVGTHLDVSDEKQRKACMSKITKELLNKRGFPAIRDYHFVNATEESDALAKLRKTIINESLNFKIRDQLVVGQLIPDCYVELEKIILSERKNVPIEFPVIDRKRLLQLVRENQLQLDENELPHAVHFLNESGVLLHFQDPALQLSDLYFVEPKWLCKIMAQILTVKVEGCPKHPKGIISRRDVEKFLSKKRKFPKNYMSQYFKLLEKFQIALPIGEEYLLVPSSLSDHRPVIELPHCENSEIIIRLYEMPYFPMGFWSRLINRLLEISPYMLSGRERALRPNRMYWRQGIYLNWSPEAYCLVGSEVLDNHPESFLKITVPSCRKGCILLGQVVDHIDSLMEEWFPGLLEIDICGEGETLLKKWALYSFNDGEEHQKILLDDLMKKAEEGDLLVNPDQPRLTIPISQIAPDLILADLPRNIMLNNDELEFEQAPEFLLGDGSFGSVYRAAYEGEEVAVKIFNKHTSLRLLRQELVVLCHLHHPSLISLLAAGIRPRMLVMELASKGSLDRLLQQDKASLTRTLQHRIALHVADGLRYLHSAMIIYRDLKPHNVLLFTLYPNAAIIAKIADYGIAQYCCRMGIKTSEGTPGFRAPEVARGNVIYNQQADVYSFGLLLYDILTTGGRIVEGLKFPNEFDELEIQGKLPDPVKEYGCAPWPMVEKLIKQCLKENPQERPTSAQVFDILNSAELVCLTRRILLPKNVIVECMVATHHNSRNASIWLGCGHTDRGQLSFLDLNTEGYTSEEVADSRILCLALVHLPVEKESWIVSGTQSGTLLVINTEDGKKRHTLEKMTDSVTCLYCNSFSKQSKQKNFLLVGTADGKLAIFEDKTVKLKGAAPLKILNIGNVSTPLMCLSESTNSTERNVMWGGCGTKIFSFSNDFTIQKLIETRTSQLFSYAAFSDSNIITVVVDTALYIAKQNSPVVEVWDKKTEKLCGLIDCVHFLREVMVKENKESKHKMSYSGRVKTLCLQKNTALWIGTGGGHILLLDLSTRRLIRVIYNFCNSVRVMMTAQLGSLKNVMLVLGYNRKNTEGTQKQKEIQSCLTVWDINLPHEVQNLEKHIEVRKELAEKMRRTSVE

B1: human RAB12 (residues 36-211) Q101L, GppNHp-bound (domain or fragment)
chain: PRPADFKLQVIIIGSRGVGKTSLMERFTDDTFCEACKSTVGVDFKIKTVELRGKKIRLQIWDTAGLERFNSITSAYYRSAKGIILVYDITKKETFDDLPKWMKMIDKYASEDAELLLVGNKLDCETDREITRQQGEKFAQQITGMRFCEASAKDNFNVDEIFLKLVDDILKKMPLD
Question: Does B1 bind?
Answer: binds
